The series deals with the molecule itself. The series is described as follows: negative-stain electron microscopy.

B1: Plasmodium falciparum actin I K270M mutant (natural protein)
chain: not shown
As for B1, the binding result is “binds”.
